Test results from patent publication US20200048312A1.

Columns and labels:
[1] = target: antibodies of human serum sample 16CDV61197 (Zika IgG positive) (human); experiment: blocking of wing DAGS ECL signal
[2] = target: antibodies of human serum sample 16CDV61275 (Zika IgG) (human); experiment: blocking of wing DAGS ECL signal
[3] = target: antibodies of human serum sample 16CDV61278 (Zika IgG positive) (human); experiment: blocking of wing DAGS ECL signal
[4] = target: antibodies of human serum sample 16CDV61197 (Zika IgG positive) (human); experiment: blocking of ß-ladder DAGS ECL signal
[5] = target: antibodies of human serum sample 16CDV61275 (Zika IgG) (human); experiment: blocking of ß-ladder DAGS ECL signal
[6] = target: antibodies of human serum sample 16CDV61278 (Zika IgG positive) (human); experiment: blocking of ß-ladder DAGS ECL signal

B1: Dengue virus type 4 NS1 full length (protein)
chain: DTGCAVSWSGKELKCGSGIFVIDNVHTWTEQYKFQPESPARLASAILNAHEDGVCGIRSTTRLENIMWKQITNELNYVLWEGGHDLTVVAGDVKGVLSKGKRALAPPVNDLKYSWKTWGKAKIFTPEAKNSTFLIDGPDTSECPNERRAWNFLEVEDYGFGMFTTNIWMKFREGSSEVCDHRLMSAAIKDQKAVHADMGYWIESSKNQTWQIEKASLIEVKTCLWPKTHTLWSNGVLESQMLIPKAYAGPFSQHNYRQGYATQTVGPWHLGKLEIDFGECPGTTVTIQEDCDHRGPSLRTTTASGKLVTQWCCRSCTMPPLRFLGEDGCWYGMEIRPLSEKEENMVKSQVSA
Blocking [%] [1]: 0.891% | Normalized to Zika Blocking [%] [1]: 1.2% | Blocking [%] [2]: 2.48% | Normalized to Zika Blocking [%] [2]: 3.3% | Blocking [%] [3]: 4.5% | Normalized to Zika Blocking [%] [3]: 4.9% | Blocking [%] [4]: 31.6% | Normalized to Zika Blocking [%] [4]: 50.3% | Blocking [%] [5]: 25.1% | Normalized to Zika Blocking [%] [5]: 27.3% | Blocking [%] [6]: 2.6% | Normalized to Zika Blocking [%] [6]: 3.7%
